What is called Kd is the free concentration of one partner at which half of the binding sites on the other are occupied at equilibrium, for simple one-to-one binding. Read a low Kd as a tighter complex.

The target in this experiment is SARS-CoV-2 Spike RBD, His Tag (BA.2/Omicron) (SARS-CoV-2, Omicron BA.2 lineage, UniProt P0DTC2 319-537).

B1: natural human IgG antibody (HIG001677) (antibody, V domains shown)
VH: EVQLVESGGGLVQPGGSLRLACAASGLTVSRNYMNWVRQAPGKGLEWVSLVYPGGSTFYADSVKGRFTISRDNSKNTLYLQMNSLRADDTAVYYCAREVRGRGDYWGQGTLVTVST
VL: DIQMTQSPSSLSASVGDRVTITCQASQDINKYLNWYQQKPGKAPKLLIYDASNLEPGVPSRFSGSGSGTDFTFTISNLQPEDIATYYCQNYDNLPQTFGQGTRLEIKR
Molecule B1 came in with a Kd of 8.58 nM.
